This passage reports Release rate results from US20240398963A1 (priority 2021, published 2024).

The format of the data set is physicochemical. The following applies: 10 mM PBS buffer (pH=7.4), 37° C., 100 rpm shaker; free drug by HPLC, average release per day. The protocol:
The drug release and stability experiments were run using the test compounds. About 2.5±1.0 mg/mL (with regard to conjugate) solution of each test compound was prepared with 10 mM PBS buffer (pH=7.4) in Millipore Amicon® Ultra-0.5 ml 30 k Ultrafiltration centrifuge tube. The solution was kept swelling for 1 h at room temperature and then placed in a shaker at 100 rpm, 37° C. for continuous experiment. At the same time point of each day, samples were centrifuged at 10000 rpm for 1 h. The aliquot was transferred to HPLC vial for analysis. An 0.4 mL of 10 mM PBS buffer was added into the centrifuge tube and continue the experiment.
For the HPLC analysis at each time point, the peak areas of all relevant peaks from the chromatograms were retrieved and the concentration of free drug was calculated. Average release of free drug was calculated based on the sum of free drug and numbers of experiment days. The computing equation is as below.
The sample degradation rate was calculated based on the concentration and degree of substitution (NMR) for conjugated drug with regard to the initial starting point of the experiment (at t=0). The computing equation is as below.

Regarding “Conjugate of HA and 2-((8S,9S,10R,11S,13S,14S,17R)-11,17-dihydroxy-10,13-dimethyl-3-oxo-2,3,6,7,8,9,10,11,12,13,14,15,16,17-tetradecahydro-1H-cyclopenta[a]phenanthren-17-yl)-2-oxoethyl 6-aminohexanoate [Example 93]”, the Release rate was 7.67 %/day.

The substance “Conjugate of HA and 2-((2S,6αS,6βR,7S,8αS,8βS,11αR,12αS,12βS)-2,6β-difluoro-7-hydroxy-6α,8α,10,10-tetramethyl-4-oxo-1,2,4,6α,6β,7,8,8α,11α,12,12α,12β-dodecahydro-8βH-naphtho[2′,1′:4,5]indeno[1,2-d][1,3]dioxol-8β-yl)-2-oxoethyl 6-aminohexanoate [Example 23]” showed a Release rate of 1.01 %/day.

Consider “Conjugate of CS and 2-((8S,9S,10R,13S,14S,17R)-17-hydroxy-10,13-dimethyl-3,11-dioxo-6,7,8,9,10,11,12,13,14,15,16,17-dodecahydro-3H-cyclopenta[a]phenanthren-17-yl)-2-oxoethyl 4-aminobutanoate [Example 35]”, for which the Release rate was 1.44 %/day.

The substance “Conjugate of HA and 2-((8S,9S,10R,11S,13S,14S,17R)-11,17-dihydroxy-10,13-dimethyl-3-oxo-2,3,6,7,8,9,10,11,12,13,14,15,16,17-tetradecahydro-1H-cyclopenta[a]phenanthren-17-yl)-2-oxoethyl 4-aminobutanoate [Example 38]” gave a Release rate of 1.71 %/day.

“Conjugate of HA and 4-aminobutyl (2-((8S,9S,10R,11S,13S,14S,17R)-11,17-dihydroxy-10,13-dimethyl-3-oxo-6,7,8,9,10,11,12,13,14,15,16,17-dodecahydro-3H-cyclopenta[a]phenanthren-17-yl)-2-oxoethyl) carbonate [Example 62]” yielded a Release rate of 0.14 %/day.

As for “Conjugate of HA and 2-((6αS,6βR,7S,8αS,8βS,11αR,12αS,12βS)-6β-fluoro-7-hydroxy-6α,8α,10,10-tetramethyl-4-oxo-1,2,4,6α,6β,7,8,8α,11α,12,12α,12β-dodecahydro-8βH-naphtho[2′,1′:4,5]indeno[1,2-d][1,3]dioxol-8β-yl)-2-oxoethyl glycylglycylglycinate [Example 19]”, the Release rate was 17.57 %/day.

“Conjugate of CS and 4-aminobutyl (2-((8S,9R,10S,11S,13S,14S,16R,17R)-9-fluoro-11,17-dihydroxy-10,13,16-trimethyl-3-oxo-6,7,8,9,10,11,12,13,14,15,16,17-dodecahydro-3H-cyclopenta[a]phenanthren-17-yl)-2-oxoethyl) carbonate [Example 71]” registered a Release rate of 1.55 %/day.

The substance “Conjugate of CS and 2-((8S,9R,10S,11S,13S,14S,16R,17R)-9-fluoro-11,17-dihydroxy-10,13,16-trimethyl-3-oxo-6,7,8,9,10,11,12,13,14,15,16,17-dodecahydro-3H-cyclopenta[a]phenanthren-17-yl)-2-oxoethyl 4-aminobutanoate [Example 45]” came in with a Release rate of 0.40 %/day.

“Conjugate of CS and 4-aminobutyl (2-((8S,9S,10R,13S,14S,17R)-17-hydroxy-10,13-dimethyl-3,11-dioxo-2,3,6,7,8,9,10,11,12,13,14,15,16,17-tetradecahydro-1H-cyclopenta[a]phenanthren-17-yl)-2-oxoethyl) carbonate [Example 67]” came in with a Release rate of 5.91 %/day.

As for “Conjugate of HA and 2-((6S,8S,9S,10R,11S,13S,14S,17R)-11,17-dihydroxy-6,10,13-trimethyl-3-oxo-6,7,8,9,10,11,12,13,14,15,16,17-dodecahydro-3H-cyclopenta[a]phenanthren-17-yl)-2-oxoethyl 5-aminopentanoate [Example 78]”, the Release rate turned out to be 8.92 %/day.

In turn, “Conjugate of CS and 2-((6αS,6βR,7S,8αS,8βS,11αR,12αS,12βS)-6β-fluoro-7-hydroxy-6α,8α,10,10-tetramethyl-4-oxo-1,2,4,6α,6β,7,8,8α,11α,12,12α,12β-dodecahydro-8βH-naphtho[2′,1′:4,5]indeno[1,2-d][1,3]dioxol-8β-yl)-2-oxoethyl 2,5-diazabicyclo[2.2.1]heptane-2-carboxylate [Example 59]” came in with a Release rate of 0.02 %/day.

“Conjugate of CS and 2-(2-(2-(2-aminoethoxy)ethoxy)ethoxy)ethyl (2-((6αS,6βR,7S,8αS,8βS,11αR,12αS,12βS)-6β-fluoro-7-hydroxy-6α,8α,10,10-tetramethyl-4-oxo-1,2,4,6α,6β,7,8,8α,11α,12,12α,12β-dodecahydro-8βH-naphtho[2′,1′:4,5]indeno[1,2-d][1,3]dioxol-8β-yl)-2-oxoethyl) carbonate [Example 55]”: the Release rate is 1.20 %/day.

Turning to “Conjugate of HA and 2-((6S,8S,9S,10R,11S,13S,14S,17R)-11,17-dihydroxy-6,10,13-trimethyl-3-oxo-6,7,8,9,10,11,12,13,14,15,16,17-dodecahydro-3H-cyclopenta[a]phenanthren-17-yl)-2-oxoethyl 6-aminohexanoate [Example 82]”, the Release rate was determined as 2.30 %/day.

The substance “Conjugate of CS and 4-aminobutyl (2-((8S,9S,10R,11S,13S,14S,17R)-11,17-dihydroxy-10,13-dimethyl-3-oxo-2,3,6,7,8,9,10,11,12,13,14,15,16,17-tetradecahydro-1H-cyclopenta[a]phenanthren-17-yl)-2-oxoethyl) carbonate [Example 65]” displayed a Release rate of 7.52 %/day.

Consider “Conjugate of HA and 2-((8S,9S,10R,11S,13S,14S,17R)-11,17-dihydroxy-10,13-dimethyl-3-oxo-6,7,8,9,10,11,12,13,14,15,16,17-dodecahydro-3H-cyclopenta[a]phenanthren-17-yl)-2-oxoethyl-5-aminopentanoate [Example 75]”, for which the Release rate is listed as 4.80 %/day.

With “Conjugate of HA and 2-((8S,9S,10R,11S,13S,14S,17R)-11,17-dihydroxy-10,13-dimethyl-3-oxo-2,3,6,7,8,9,10,11,12,13,14,15,16,17-tetradecahydro-1H-cyclopenta[a]phenanthren-17-yl)-2-oxoethyl 5-aminopentanoate [Example 76]”, the Release rate stood at 2.66 %/day.

Substance “Conjugate of HA and 2-((8S,9S,10R,13S,14S,17R)-17-hydroxy-10,13-dimethyl-3,11-dioxo-2,3,6,7,8,9,10,11,12,13,14,15,16,17-tetradecahydro-1H-cyclopenta[a]phenanthren-17-yl)-2-oxoethyl 4-aminobutanoate [Example 40]” registered a Release rate of 2.49 %/day.

Turning to “Conjugate of CS and 2-((8S,9R,10S,11S,13S,14S,16S,17R)-9-fluoro-11,17-dihydroxy-10,13,16-trimethyl-3-oxo-6,7,8,9,10,11,12,13,14,15,16,17-dodecahydro-3H-cyclopenta[a]phenanthren-17-yl)-2-oxoethyl 4-aminobutanoate [Example 47]”, the Release rate is on record as 1.24 %/day.

For the substance “Conjugate of HA and 5-aminopentyl (2-((8S,9S,10R,13S,14S,17R)-17-hydroxy-10,13-dimethyl-3,11-dioxo-2,3,6,7,8,9,10,11,12,13,14,15,16,17-tetradecahydro-1H-cyclopenta[a]phenanthren-17-yl)-2-oxoethyl) carbonate [Example 91]”, the Release rate was 11.66 %/day.
